In the RNAGym collection of RNA variant scans (doi:10.1021/acssynbio.7b00057):

B1: Pistol ribozyme (parent)
chain: GGGUCGUUGUUCCAUAAUCGCGUGGAUAUGGCACGCAAGUUUCUACCGGGCACCGUAAAUGUCCGACUGGAGCCGUUCGGGCGGCUAUAAACAGACCUCAGGCCCGAAGCGUGGCGGCACCUGCCGCCGGUGGUAAAAAAGAUCGGAAGAGCACACGUCU

Variants of: B1
Assay: aptazyme ON/OFF ratio, guanine; higher = stronger switching; co-transcriptional cleavage with and without guanine

Variant | aptazyme ON/OFF ratio
GGGUCGGGGUGGGAUAAUCGCGUGGAUAUGGCACGCAAGUUUCUACCGGGCACCGUAAAUGUCCGACUGGAGCCGUUCGGGCGGCUAUAAACAGACCUCAGGCCCGAAGCGUGGCGGCACCUGCCGCCGGUGGUAAAAAAGAUCGGAAGAGCACACGUCU [U7G U8G U11G C12G C13G] | 1.21
GGGUCGGGGUGGUAUAAUCGCGUGGAUAUGGCACGCAAGUUUCUACCGGGCACCGUAAAUGUCCGACUGGAGCCGUUCGGGCGGCUAUAAACAGACCUCAGGCCCGAAGCGUGGCGGCACCUGCCGCCGGUGGUAAAAAAGAUCGGAAGAGCACACGUCU [U7G U8G U11G C12G C13U] | 1.09
GGGUCGGGGUGGAAUAAUCGCGUGGAUAUGGCACGCAAGUUUCUACCGGGCACCGUAAAUGUCCGACUGGAGCCGUUCGGGCGGCUAUAAACAGACCUCAGGCCCGAAGCGUGGCGGCACCUGCCGCCGGUGGUAAAAAAGAUCGGAAGAGCACACGUCU [U7G U8G U11G C12G C13A] | 1.18
GGGUCGGGGUGAAAUAAUCGCGUGGAUAUGGCACGCAAGUUUCUACCGGGCACCGUAAAUGUCCGACUGGAGCCGUUCGGGCGGCUAUAAACAGACCUCAGGCCCGAAGCGUGGCGGCACCUGCCGCCGGUGGUAAAAAAGAUCGGAAGAGCACACGUCU [U7G U8G U11G C12A C13A] | 1.24
GGGUCGGGGUGAGAUAAUCGCGUGGAUAUGGCACGCAAGUUUCUACCGGGCACCGUAAAUGUCCGACUGGAGCCGUUCGGGCGGCUAUAAACAGACCUCAGGCCCGAAGCGUGGCGGCACCUGCCGCCGGUGGUAAAAAAGAUCGGAAGAGCACACGUCU [U7G U8G U11G C12A C13G] | 1.21
GGGUCGGGGUGAUAUAAUCGCGUGGAUAUGGCACGCAAGUUUCUACCGGGCACCGUAAAUGUCCGACUGGAGCCGUUCGGGCGGCUAUAAACAGACCUCAGGCCCGAAGCGUGGCGGCACCUGCCGCCGGUGGUAAAAAAGAUCGGAAGAGCACACGUCU [U7G U8G U11G C12A C13U] | 1.35
GGGUCGGUGAUACAUAAUCGCGUGGAUAUGGCACGCAAGUUUCUACCGGGCACCGUAAAUGUCCGACUGGAGCCGUUCGGGCGGCUAUAAACAGACCUCAGGCCCGAAGCGUGGCGGCACCUGCCGCCGGUGGUAAAAAAGAUCGGAAGAGCACACGUCU [U7G U10A C12A] | 1.21
GGGUCGGUGAUGCAUAAUCGCGUGGAUAUGGCACGCAAGUUUCUACCGGGCACCGUAAAUGUCCGACUGGAGCCGUUCGGGCGGCUAUAAACAGACCUCAGGCCCGAAGCGUGGCGGCACCUGCCGCCGGUGGUAAAAAAGAUCGGAAGAGCACACGUCU [U7G U10A C12G] | 1.22
GGGUCGGUGAUUCAUAAUCGCGUGGAUAUGGCACGCAAGUUUCUACCGGGCACCGUAAAUGUCCGACUGGAGCCGUUCGGGCGGCUAUAAACAGACCUCAGGCCCGAAGCGUGGCGGCACCUGCCGCCGGUGGUAAAAAAGAUCGGAAGAGCACACGUCU [U7G U10A C12U] | 1.16
GGGUCGGGGUGUAAUAAUCGCGUGGAUAUGGCACGCAAGUUUCUACCGGGCACCGUAAAUGUCCGACUGGAGCCGUUCGGGCGGCUAUAAACAGACCUCAGGCCCGAAGCGUGGCGGCACCUGCCGCCGGUGGUAAAAAAGAUCGGAAGAGCACACGUCU [U7G U8G U11G C12U C13A] | 1.5
GGGUCGGGGUGUUAUAAUCGCGUGGAUAUGGCACGCAAGUUUCUACCGGGCACCGUAAAUGUCCGACUGGAGCCGUUCGGGCGGCUAUAAACAGACCUCAGGCCCGAAGCGUGGCGGCACCUGCCGCCGGUGGUAAAAAAGAUCGGAAGAGCACACGUCU [U7G U8G U11G C12U C13U] | 1.37
GGGUCGGGGUGUGAUAAUCGCGUGGAUAUGGCACGCAAGUUUCUACCGGGCACCGUAAAUGUCCGACUGGAGCCGUUCGGGCGGCUAUAAACAGACCUCAGGCCCGAAGCGUGGCGGCACCUGCCGCCGGUGGUAAAAAAGAUCGGAAGAGCACACGUCU [U7G U8G U11G C12U C13G] | 1.26
GGGUCGGUGAUCUAUAAUCGCGUGGAUAUGGCACGCAAGUUUCUACCGGGCACCGUAAAUGUCCGACUGGAGCCGUUCGGGCGGCUAUAAACAGACCUCAGGCCCGAAGCGUGGCGGCACCUGCCGCCGGUGGUAAAAAAGAUCGGAAGAGCACACGUCU [U7G U10A C13U] | 1.16
GGGUCGGUGAUCAAUAAUCGCGUGGAUAUGGCACGCAAGUUUCUACCGGGCACCGUAAAUGUCCGACUGGAGCCGUUCGGGCGGCUAUAAACAGACCUCAGGCCCGAAGCGUGGCGGCACCUGCCGCCGGUGGUAAAAAAGAUCGGAAGAGCACACGUCU [U7G U10A C13A] | 1.13
GGGUCGGUGAUCGAUAAUCGCGUGGAUAUGGCACGCAAGUUUCUACCGGGCACCGUAAAUGUCCGACUGGAGCCGUUCGGGCGGCUAUAAACAGACCUCAGGCCCGAAGCGUGGCGGCACCUGCCGCCGGUGGUAAAAAAGAUCGGAAGAGCACACGUCU [U7G U10A C13G] | 1.12
GGGUCGGGGUGGCAUAAUCGCGUGGAUAUGGCACGCAAGUUUCUACCGGGCACCGUAAAUGUCCGACUGGAGCCGUUCGGGCGGCUAUAAACAGACCUCAGGCCCGAAGCGUGGCGGCACCUGCCGCCGGUGGUAAAAAAGAUCGGAAGAGCACACGUCU [U7G U8G U11G C12G] | 1.28
GGGUCGGGGUGUCAUAAUCGCGUGGAUAUGGCACGCAAGUUUCUACCGGGCACCGUAAAUGUCCGACUGGAGCCGUUCGGGCGGCUAUAAACAGACCUCAGGCCCGAAGCGUGGCGGCACCUGCCGCCGGUGGUAAAAAAGAUCGGAAGAGCACACGUCU [U7G U8G U11G C12U] | 1.25
GGGUCGGGGUGACAUAAUCGCGUGGAUAUGGCACGCAAGUUUCUACCGGGCACCGUAAAUGUCCGACUGGAGCCGUUCGGGCGGCUAUAAACAGACCUCAGGCCCGAAGCGUGGCGGCACCUGCCGCCGGUGGUAAAAAAGAUCGGAAGAGCACACGUCU [U7G U8G U11G C12A] | 1.42

Variant | aptazyme ON/OFF ratio
GGGUCGGUGAUUAAUAAUCGCGUGGAUAUGGCACGCAAGUUUCUACCGGGCACCGUAAAUGUCCGACUGGAGCCGUUCGGGCGGCUAUAAACAGACCUCAGGCCCGAAGCGUGGCGGCACCUGCCGCCGGUGGUAAAAAAGAUCGGAAGAGCACACGUCU [U7G U10A C12U C13A] | 1.2
GGGUCGGUGAUUGAUAAUCGCGUGGAUAUGGCACGCAAGUUUCUACCGGGCACCGUAAAUGUCCGACUGGAGCCGUUCGGGCGGCUAUAAACAGACCUCAGGCCCGAAGCGUGGCGGCACCUGCCGCCGGUGGUAAAAAAGAUCGGAAGAGCACACGUCU [U7G U10A C12U C13G] | 1.22
GGGUCGGUGAUUUAUAAUCGCGUGGAUAUGGCACGCAAGUUUCUACCGGGCACCGUAAAUGUCCGACUGGAGCCGUUCGGGCGGCUAUAAACAGACCUCAGGCCCGAAGCGUGGCGGCACCUGCCGCCGGUGGUAAAAAAGAUCGGAAGAGCACACGUCU [U7G U10A C12U C13U] | 1.25
GGGUCGGGGUGCCAUAAUCGCGUGGAUAUGGCACGCAAGUUUCUACCGGGCACCGUAAAUGUCCGACUGGAGCCGUUCGGGCGGCUAUAAACAGACCUCAGGCCCGAAGCGUGGCGGCACCUGCCGCCGGUGGUAAAAAAGAUCGGAAGAGCACACGUCU [U7G U8G U11G] | 2.52
GGGUCGGUGAACCAUAAUCGCGUGGAUAUGGCACGCAAGUUUCUACCGGGCACCGUAAAUGUCCGACUGGAGCCGUUCGGGCGGCUAUAAACAGACCUCAGGCCCGAAGCGUGGCGGCACCUGCCGCCGGUGGUAAAAAAGAUCGGAAGAGCACACGUCU [U7G U10A U11A] | 2.39
GGGUCGGUGAUCCAUAAUCGCGUGGAUAUGGCACGCAAGUUUCUACCGGGCACCGUAAAUGUCCGACUGGAGCCGUUCGGGCGGCUAUAAACAGACCUCAGGCCCGAAGCGUGGCGGCACCUGCCGCCGGUGGUAAAAAAGAUCGGAAGAGCACACGUCU [U7G U10A] | 1.18
GGGUCGGGGUCCGAUAAUCGCGUGGAUAUGGCACGCAAGUUUCUACCGGGCACCGUAAAUGUCCGACUGGAGCCGUUCGGGCGGCUAUAAACAGACCUCAGGCCCGAAGCGUGGCGGCACCUGCCGCCGGUGGUAAAAAAGAUCGGAAGAGCACACGUCU [U7G U8G U11C C13G] | 1.27
GGGUCGGGGUCCUAUAAUCGCGUGGAUAUGGCACGCAAGUUUCUACCGGGCACCGUAAAUGUCCGACUGGAGCCGUUCGGGCGGCUAUAAACAGACCUCAGGCCCGAAGCGUGGCGGCACCUGCCGCCGGUGGUAAAAAAGAUCGGAAGAGCACACGUCU [U7G U8G U11C C13U] | 1.25
GGGUCGGUGAUAGAUAAUCGCGUGGAUAUGGCACGCAAGUUUCUACCGGGCACCGUAAAUGUCCGACUGGAGCCGUUCGGGCGGCUAUAAACAGACCUCAGGCCCGAAGCGUGGCGGCACCUGCCGCCGGUGGUAAAAAAGAUCGGAAGAGCACACGUCU [U7G U10A C12A C13G] | 1.12
GGGUCGGUGAUAAAUAAUCGCGUGGAUAUGGCACGCAAGUUUCUACCGGGCACCGUAAAUGUCCGACUGGAGCCGUUCGGGCGGCUAUAAACAGACCUCAGGCCCGAAGCGUGGCGGCACCUGCCGCCGGUGGUAAAAAAGAUCGGAAGAGCACACGUCU [U7G U10A C12A C13A] | 1.21
GGGUCGGUGAUAUAUAAUCGCGUGGAUAUGGCACGCAAGUUUCUACCGGGCACCGUAAAUGUCCGACUGGAGCCGUUCGGGCGGCUAUAAACAGACCUCAGGCCCGAAGCGUGGCGGCACCUGCCGCCGGUGGUAAAAAAGAUCGGAAGAGCACACGUCU [U7G U10A C12A C13U] | 1.18
GGGUCGGUGAUGUAUAAUCGCGUGGAUAUGGCACGCAAGUUUCUACCGGGCACCGUAAAUGUCCGACUGGAGCCGUUCGGGCGGCUAUAAACAGACCUCAGGCCCGAAGCGUGGCGGCACCUGCCGCCGGUGGUAAAAAAGAUCGGAAGAGCACACGUCU [U7G U10A C12G C13U] | 1.17
GGGUCGGUGAUGGAUAAUCGCGUGGAUAUGGCACGCAAGUUUCUACCGGGCACCGUAAAUGUCCGACUGGAGCCGUUCGGGCGGCUAUAAACAGACCUCAGGCCCGAAGCGUGGCGGCACCUGCCGCCGGUGGUAAAAAAGAUCGGAAGAGCACACGUCU [U7G U10A C12G C13G] | 1.2
GGGUCGGUGAUGAAUAAUCGCGUGGAUAUGGCACGCAAGUUUCUACCGGGCACCGUAAAUGUCCGACUGGAGCCGUUCGGGCGGCUAUAAACAGACCUCAGGCCCGAAGCGUGGCGGCACCUGCCGCCGGUGGUAAAAAAGAUCGGAAGAGCACACGUCU [U7G U10A C12G C13A] | 1.15
GGGUCGGUGAAACAUAAUCGCGUGGAUAUGGCACGCAAGUUUCUACCGGGCACCGUAAAUGUCCGACUGGAGCCGUUCGGGCGGCUAUAAACAGACCUCAGGCCCGAAGCGUGGCGGCACCUGCCGCCGGUGGUAAAAAAGAUCGGAAGAGCACACGUCU [U7G U10A U11A C12A] | 1.07
GGGUCGGGGUGCAAUAAUCGCGUGGAUAUGGCACGCAAGUUUCUACCGGGCACCGUAAAUGUCCGACUGGAGCCGUUCGGGCGGCUAUAAACAGACCUCAGGCCCGAAGCGUGGCGGCACCUGCCGCCGGUGGUAAAAAAGAUCGGAAGAGCACACGUCU [U7G U8G U11G C13A] | 1.21
GGGUCGGGGUGCGAUAAUCGCGUGGAUAUGGCACGCAAGUUUCUACCGGGCACCGUAAAUGUCCGACUGGAGCCGUUCGGGCGGCUAUAAACAGACCUCAGGCCCGAAGCGUGGCGGCACCUGCCGCCGGUGGUAAAAAAGAUCGGAAGAGCACACGUCU [U7G U8G U11G C13G] | 1.39
GGGUCGGGGUGCUAUAAUCGCGUGGAUAUGGCACGCAAGUUUCUACCGGGCACCGUAAAUGUCCGACUGGAGCCGUUCGGGCGGCUAUAAACAGACCUCAGGCCCGAAGCGUGGCGGCACCUGCCGCCGGUGGUAAAAAAGAUCGGAAGAGCACACGUCU [U7G U8G U11G C13U] | 1.28
